Results: patent publication US20200190220A1 (FRED HUTCHINSON CANCER RESEARCH CENTER, published 2020)
Where no end group is shown, it is not given here. [ ]: non-standard residue; d: D form. The star is where a group is joined. FITC = O=C1OC2(c3ccc(O)cc3Oc3cc(O)ccc32)c2ccc(NC(=S)*)cc21; pY = N[C@@H](Cc1ccc(OP(=O)(O)O)cc1)C(=O)O; Ahx = NCCCCCC(=O)O

Target: T1, FITC-labeled peptide with the target sequence for the SH2 domain, EHIpYDEVAAD
T1 construct: also called N-Glu-His-Ile-pTyr-Asp-Glu-Val-Ala-Ala-Asp-C
T1 peptide: {FITC-Ahx}-EHI[pY]DEVAAD
Assay: fluorescence anisotropy of FITC-labeled peptide against rising protein concentration (FIG. 16D)
Text: FIGS. 16A-16E. Functional (peptide-binding) characterization of dTor_12×31L_SH2_single (12× scaffold containing 1 SH2 domain). FIG. 16A: SDS-PAGE electrophoretic analysis of purified dTor_12×31L SH2_single (corresponding to a monomeric cTRP containing 12 repeats, interrupted within repeat #3 by an SH2 domain derived from the human Nck2 adapter protein). FIG. 16B: ribbon diagram of the design of dTor_12×31L SH2_single, visualized from the top and the side of the designed protein repeats. FIG. 16C: Size Exclusion Chromatographic (SEC) separation and analysis of purified dTor_12×31L_SH2_single. Hydrodynamic radii of purified constructs, measured using dynamic light scattering (DLS), is also indicated. FIG. 16D: Binding of peptide corresponding to sequence by dTor_12×31L_SH2_single. Binding measured by monitoring Fluorescence Anisotropy signal from a labeled peptide as a function of increasing protein concentration. […]
Determination of ligand binding using Fluorescence Polarization (FP): Each protein construct was 2-fold serially diluted into twelve concentrations, from 23 μM to 0.011 μM, using FP Buffer (20 mM HEPES+150 mM KCl at pH7.4). […] Background was subtracted from raw perpendicular and parallel fluorescence intensity, which were then converted to fluorescence polarization (mP) by the following equation: […]

B1: dTor_12×31L (non-functionalized, lacking any inserted SH2 domain) (designed binder)
chain: GSSMASGISVEELLKLAKAAYYSGTTVEEAYKLALKLGISVEELLKLAEAAYYSGTTVEEAYKLALKLGISVEELLKLAKAAYYSGTTVEEAYKLALKLGISVEELLKLAKAAYYSGTTVEEAYKLALKLGISVEELLKLAEAAYYSGTTVEEAYKLALKLGISVEELLKLAKAAYYSGTTVEEAYKLALKLGISVEELLKLAKAAYYSGTTVEEAYKLALKLGISVEELLKLAEAAYYSGTTVEEAYKLALKLGISVEELLKLAKAAYYSGTTVEEAYKLALKLGISVEELLKLAKAAYYSGTTVEEAYKLALKLGISVEELLKLAEAAYYSGTTVEEAYKLALKLGISVEELLKLAKAAYYSGTTVEEAYKLALKLG
  binding result: no binding
